From patent US20210292412A1 (published 2021) come the findings set out here.

Changes are numbered by the printed parent chain.

Assay [1] concerns the target T1, human CD47 on CCRF-CEM cells (CD47 positive cells) (human, UniProt Q08722 19-323). Kind of assay: FACS binding.
For assay [2], the target named is T2, recombinant N-terminal extracellular domain protein of human CD47 molecule (hCD47) (UniProt Q08722 19-135).
T2 chain: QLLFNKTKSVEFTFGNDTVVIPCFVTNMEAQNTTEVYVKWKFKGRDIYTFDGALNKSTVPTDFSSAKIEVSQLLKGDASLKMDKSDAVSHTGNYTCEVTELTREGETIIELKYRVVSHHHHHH
Kind of assay: ELISA blocking of CD47-SIRPα.

Assay [3] concerns the target T2, recombinant N-terminal extracellular …. The assay can be described thus: BLI; avid. A general note: BLI is a label-free optical method that tracks binding on a fibre tip over time.
The target in assay [4] is T1, human CD47 on CCRF-CEM cells (CD47 …). The assay can be described thus: FACS blocking of CD47-SIRPα.
The target of assay [5] is T2, recombinant N-terminal extracellular …. Kind of assay: ELISA binding. For orientation: In an ELISA, binding on a coated surface is turned into a signal by an enzyme label.
The target is the same in assay [6]. The assay can be described thus: BLI; affinity.

B1: h15G6 VH-v5/VK-v1 (antibody, V domains shown)
VH: QVQLVQSGAEVKKPGASVKVSCKASGYTFTDYYIHWVRQAPGQGLEWMGWIYPGSGNTKYNEKFQGRVTMTRDTSISTAYMELSSLRSDDTAVYYCARRREDSFDYWGQGTLVTVSS
VL: DIVMTQSPDSLAVSLGERATINCKSSQSLLYSSNQKNYLAWYQRKPGQPPKLLIYWASNRESGVPDRFSGSGSGTDFTLTISSLQAEDVAVYYCQQFYRYPLTFGQGTKVEIK
As a reminder, the EC50 is the midpoint of the concentration-response curve. One may read the IC50 as the concentration that inhibits the measured activity by half. Broadly, the Kd is the constant that tells how readily two partners part at equilibrium. As to B1, the EC50 was determined as 0.0483 nM in assay [1] and 0.0314 nM in assay [5]. Also, the figures for the IC50 in assay [2] and in assay [4] were 0.118 nM and 0.0488 nM, respectively. For the same molecule, the Kd in assay [3] was determined as 0.2 nM; in assay [6] it was 23 nM.

B2: h15G6 VH-v7/VK-v1 (antibody, V domains shown)
VH: B1 VH with V11L, M70L, R72V, I76T, A79V
VL: B1 VL
On to B2, for which the EC50 was determined as 0.0482 nM in assay [1] and 0.0283 nM in assay [5]. Also, the values for the IC50 in assay [2] and in assay [4] were 0.053 nM and 0.134 nM, respectively. Besides, the Kd was 0.6 nM in assay [3] and 41 nM in assay [6].

B3: h15G6 VH-v7/VK-v2 (antibody, V domains shown)
VH: B1 VH with V11L, M70L, R72V, I76T, A79V
VL: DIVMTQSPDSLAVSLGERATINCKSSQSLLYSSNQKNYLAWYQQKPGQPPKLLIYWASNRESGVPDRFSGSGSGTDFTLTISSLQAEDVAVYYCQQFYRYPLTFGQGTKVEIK
On to B3, for which the figures for the EC50 in assay [1] and in assay [5] were 0.0488 nM and 0.0229 nM, respectively. The values for the IC50 in assay [2] and in assay [4] were 0.0843 nM and 0.0397 nM, respectively. Besides, the values for the Kd in assay [3] and in assay [6] were 0.71 nM and 56 nM, respectively.

B4: h15G6 VH-v1/VK-v1 (antibody, V domains shown)
VH: B1 VH with V2I, M70L, R72V, I76S, A79V, Y95F, L112T, V113L
VL: B1 VL
As for B4, the EC50 in assay [1] came to 0.0602 nM; in assay [5], 0.092 nM. The IC50 in assay [2] worked out at 0.0942 nM; in assay [4], 0.0686 nM. Also, the Kd amounted to 0.41 nM in assay [3] and 18 nM in assay [6].
